Laboratory results from patent US20080119428A1 (ONCOTHERAPY SCIENCE, published 2008).

Target: T1, EPRS (glutamyl-prolyl tRNA synthetase) (UniProt P07814 1-1512)
T1 construct: Endogenous protein in LC319 cell lysate, identified by MALDI-TOF mass spectrometry as a 180-kDa band; also called 180-kDa band
Assay: tandem immunoprecipitation (anti-FLAG M2, then anti-HA) from transfected LC319 lysate, silver-stained SDS-PAGE, MALDI-TOF MS
Procedure: Cell extracts from lung-cancer cell line LC319 transfected with the plasmids expressing N-terminal FLAG-tagged and C-terminal HA-tagged-pCAGGS-IMS-E21 (URLC8) vector or mock vector (control) were pre-cleared by incubation at 4° C. for 1 hour with 100 μL of protein G-agarose beads in a final volume of 2 ml of IP-buffer (0.5% NP-40, 50 mM Tris-HCl, 150 mM NaCl) in the presence of proteinase inhibitor. After centrifugation at 1000 rpm for 5 min at 4° C., the supernatant was incubated at 4° C. with anti-Flag M2 agarose for 2 hours. The beads were then collected by centrifugation at 5000 rpm for 2 min and washed six times with 1 ml of each immunoprecipitation buffer. Then, the washed beads were eluted by Flag-peptide (Sigma-Aldrich Co., St. Louis, Mo.). The elution was incubated at 4° C. with anti-HA agarose for 2 hours. The washed beads were resuspended in 50 μL of Laemmli sample buffer and boiled for 5 min, and the proteins were separated by 5-10% SDS PAGE gels (BIO RAD). After electrophoresis, the gels were stained with silver. Protein bands specifically found in IMS-E21 (URLC8)- transfected extracts were excised and served for matrix-assisted laser desorption/ionization-time of flight mass spectrometry (MALDI-TOF-MS) analysis (AXIMA-CFR plus, SHIMADZU BIOTECH, Kyoto, Japan). […]

T1 sequence (P07814 whole entry): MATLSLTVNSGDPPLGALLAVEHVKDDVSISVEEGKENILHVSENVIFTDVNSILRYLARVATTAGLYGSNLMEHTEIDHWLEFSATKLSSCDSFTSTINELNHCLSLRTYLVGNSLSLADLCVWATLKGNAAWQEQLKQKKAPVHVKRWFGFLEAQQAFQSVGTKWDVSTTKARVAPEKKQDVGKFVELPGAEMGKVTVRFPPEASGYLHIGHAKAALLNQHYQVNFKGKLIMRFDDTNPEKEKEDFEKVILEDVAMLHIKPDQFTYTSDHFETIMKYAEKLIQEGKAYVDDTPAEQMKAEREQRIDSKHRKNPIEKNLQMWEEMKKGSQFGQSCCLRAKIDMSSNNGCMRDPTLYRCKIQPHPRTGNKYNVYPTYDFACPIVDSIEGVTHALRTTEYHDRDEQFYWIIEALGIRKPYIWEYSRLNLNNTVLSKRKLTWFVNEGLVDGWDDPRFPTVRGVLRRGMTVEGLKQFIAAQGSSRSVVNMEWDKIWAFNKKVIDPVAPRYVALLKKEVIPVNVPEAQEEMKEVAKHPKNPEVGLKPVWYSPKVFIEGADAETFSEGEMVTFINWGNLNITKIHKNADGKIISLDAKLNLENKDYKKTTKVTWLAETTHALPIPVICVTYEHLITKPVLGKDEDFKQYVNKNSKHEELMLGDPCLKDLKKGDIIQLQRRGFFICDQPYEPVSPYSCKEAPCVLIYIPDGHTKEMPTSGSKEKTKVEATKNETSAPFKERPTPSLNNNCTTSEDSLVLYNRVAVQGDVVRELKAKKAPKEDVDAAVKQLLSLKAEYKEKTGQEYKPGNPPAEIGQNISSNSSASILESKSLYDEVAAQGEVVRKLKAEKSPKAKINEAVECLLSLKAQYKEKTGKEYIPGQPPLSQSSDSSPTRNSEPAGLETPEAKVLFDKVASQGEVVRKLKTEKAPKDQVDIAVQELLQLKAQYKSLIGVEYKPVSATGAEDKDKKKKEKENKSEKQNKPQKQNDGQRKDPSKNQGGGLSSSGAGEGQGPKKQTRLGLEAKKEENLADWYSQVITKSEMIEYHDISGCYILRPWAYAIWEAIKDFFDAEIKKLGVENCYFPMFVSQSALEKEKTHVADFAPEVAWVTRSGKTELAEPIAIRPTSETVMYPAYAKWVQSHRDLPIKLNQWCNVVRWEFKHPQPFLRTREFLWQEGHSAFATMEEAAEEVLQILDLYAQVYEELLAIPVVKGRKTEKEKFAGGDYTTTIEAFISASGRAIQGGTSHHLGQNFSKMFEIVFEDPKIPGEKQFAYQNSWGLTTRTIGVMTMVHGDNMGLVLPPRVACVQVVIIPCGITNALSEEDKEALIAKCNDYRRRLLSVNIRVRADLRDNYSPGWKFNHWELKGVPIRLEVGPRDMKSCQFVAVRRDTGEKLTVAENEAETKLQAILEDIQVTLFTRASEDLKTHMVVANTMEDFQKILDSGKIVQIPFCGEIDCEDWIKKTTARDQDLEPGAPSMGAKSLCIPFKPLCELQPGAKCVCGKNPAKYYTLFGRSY

binding result: binds
B1: N-terminal FLAG-tagged and C-terminal HA-tagged IMS-E21 (URLC8) (enzyme)
chain: MILNSLSLCYHNKLILAPMVRVGTLPMRLLALDYGADIVYCEELIDLKMIQCKRVVNEVLSTVDFVAPDDRVVFRTCEREQNRVVFQMGTSDAERALAVARLVENDVAGIDVNMGCPKQYSTKGGMGAALLSDPDKIEKILSTLVKGTRRPVTCKIRILPSLEDTLSLVKRIERTGIAAIAVHGRKREERPQHPVSCEVIKAIADTLSIPVIANGGSHDHIQQYSDIEDFRQATAASSVMVARAAMWNPSIFLKEGLRPLEEVMQKYIRYAVQYDNHYTNTKYCLCQMLREQLESPQGRLLHAAQSSREICEAFGLGAFYEETTQELDAQQARLSAKTSEQTGEPAEDTSGVIKMAVKFDRRAYPAQITPKMCLLEWCRREKLAQPVYETVQRPLDRLFSSIVTVAEQKYQSTLWDKSKKLAEQAAAIVCLRSQGLPEGRLGEESPSLHKRKREAPDQDPGGPRAQELAQPGDLCKKPFVALGSGEESPLEGW
notes: Expressed from a pCAGGS vector in transfected LC319 cells; also called FLAG-tagged and HA-tagged-pCAGGS-IMS-E21; not shown: N-terminal FLAG tag; C-terminal HA tag
